Results from publication PMC9780825 (2022).
No end group written: not given here.

Assays:
[1] = target: Kv1.3 (mKate2-tagged, K-Kv1.3) (Homo sapiens, UniProt P22001); assay: confocal fluorescence binding on HEK293 cells
[2] = target: T1, Kv1.3 (mKate2-tagged, K-ΔKv1.3) 53-C-terminus (deletion M1-D52) (Homo sapiens, UniProt P22001); assay: confocal fluorescence binding on HEK293 cells
[3] = target: T1, Kv1.3 (mKate2-tagged, K-ΔKv1.3) …; assay: fluorescent competitive binding assay (confocal, HEK293 cells)

T1 sequence (P22001 53-575, stated change not applied): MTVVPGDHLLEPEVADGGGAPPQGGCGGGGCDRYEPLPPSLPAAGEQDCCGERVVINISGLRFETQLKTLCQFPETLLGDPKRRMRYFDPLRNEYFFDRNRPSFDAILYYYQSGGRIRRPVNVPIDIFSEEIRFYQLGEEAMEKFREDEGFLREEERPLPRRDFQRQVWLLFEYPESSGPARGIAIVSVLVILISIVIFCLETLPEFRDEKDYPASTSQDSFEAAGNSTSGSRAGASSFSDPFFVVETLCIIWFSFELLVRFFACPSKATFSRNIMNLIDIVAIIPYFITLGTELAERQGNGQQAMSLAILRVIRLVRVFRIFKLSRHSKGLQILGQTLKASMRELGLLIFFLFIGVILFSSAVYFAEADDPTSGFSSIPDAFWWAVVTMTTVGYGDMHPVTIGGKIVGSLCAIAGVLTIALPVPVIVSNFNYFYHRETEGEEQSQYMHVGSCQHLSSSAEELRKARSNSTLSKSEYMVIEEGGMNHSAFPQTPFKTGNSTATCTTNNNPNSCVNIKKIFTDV
Chain of Kv1.3 (mKate2-tagged, K-Kv1.3) (P22001 whole entry): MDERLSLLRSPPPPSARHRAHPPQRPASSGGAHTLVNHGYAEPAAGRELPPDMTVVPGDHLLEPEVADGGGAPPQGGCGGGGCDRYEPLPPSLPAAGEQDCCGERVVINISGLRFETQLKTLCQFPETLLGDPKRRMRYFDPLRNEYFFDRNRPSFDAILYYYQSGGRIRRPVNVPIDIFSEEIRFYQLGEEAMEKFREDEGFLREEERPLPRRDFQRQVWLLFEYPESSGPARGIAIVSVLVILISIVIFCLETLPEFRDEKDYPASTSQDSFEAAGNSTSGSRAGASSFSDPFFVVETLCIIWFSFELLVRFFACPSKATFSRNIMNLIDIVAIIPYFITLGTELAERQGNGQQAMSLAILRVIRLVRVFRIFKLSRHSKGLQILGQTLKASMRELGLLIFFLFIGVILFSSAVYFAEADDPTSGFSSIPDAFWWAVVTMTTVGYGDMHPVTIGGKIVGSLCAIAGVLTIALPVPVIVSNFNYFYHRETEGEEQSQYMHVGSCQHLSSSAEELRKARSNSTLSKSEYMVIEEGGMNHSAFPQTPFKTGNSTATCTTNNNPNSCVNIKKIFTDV

| Binder | Kd [1] | Kd [2] | Ki [3] |
| --- | --- | --- | --- |
| Atto488-TVIDVKCTSPKQCLPPCKAQFGIRAGAKCMNGKCKCYPH (ends and bridges not checked) [Hongotoxin 1 (Atto488-labeled, A-HgTx)] | 0.3 nM | 0.48 nM | – |
| GVEINVKCSGSPQCLKPCKDAGMRFGKCMNRKCHCTPK (ends and bridges not checked; cysteine pairing not given here) [Kaliotoxin 1 (KTx1)] | – | – | 4 nM |
| GVPINVSCTGSPQCIKPCKDAGMRFGKCMNRKCHCTPK (ends and bridges not checked; cysteine pairing not given here) [Agitoxin 2 (AgTx2)] | – | – | 1.1 nM |
| TVIDVKCTSPKQCLPPCKAQFGIRAGAKCMNGKCKCYPH (ends and bridges not checked; cysteine pairing not given here) [Hongotoxin 1 (HgTx1)] | – | – | 0.2 nM |
